Assay: soluble on expression in E. coli; label from the status in PepcDB or PDB records

| Sequence | soluble on expression in E. coli |
| --- | --- |
| GHHHHHHMKVGYVAIVGKPNVGKSTLLNNLLGTKVSIISPKAGTTRMRVLGVKNIPNEAQIIFLDTPGIYEPKKSDVLGHSMVEIAKQSLEEADVILFMIDATEGWRPRDEEIYQNFIKPLNKPVIVVINKIDKIGPAKNVLPLIDEIHKKHPELTEIVPISALKGANLDELVKTILKYLPEGEPLFPEDMITDLPLRLLAAEIVREKAMMLTREEVPTSIAVKINEIKPGDANPNMLVIKGEIIVDRENLKPIIIGKKGQRLKEIGKRARQELELILGRPVYLELWVKVVPDWRRRPEYVRLFGYAL | soluble |
| GHMAGGTKRLPRAVREQQMLDAAVDVFSDRGFHETSMDAIAAKAEISKPMLYLYYGSKDELFAACIQREGLRFVEALAPAGDPGLSPREQLRRALEGFLGFVGKHRKSWMVLYRQAMGQQAFVGSVQSSRDRLIELTAHLLESSTKDPEPGQDFELIAIALVGAGEAVADRVAGGEIEVDAAADLLESLAWRGLAGKKKPEGS | soluble |
| GHMASVTRAVFGELPSGGGTVEKFQLQSDLLRVDIISWGCTITALEVKDRQGRASDVVLGFAELEGYLQKQPYFGAVIGRVANRIAKGTFKVDGKEYHLAINKEPNSLHGGVRGFDKVLWTPRVLSNGVQFSRISPDGEEGYPGELKVWVTYTLDGGELIVNYRAQASQATPVNLTNHSYFNLAGQASPNINDHEVTIEADTYLPVDETLIPTGEVAPVQGTAFDLRKPVELGKHLQDFHLNGFDHNFCLKGSKEKHFCARVHHAASGRVLEVYTTQPGVQFYTGNFLDGTLKGKNGAVYPKHSGFCLETQNWPDAVNQPRFPPVLLRPGEEYDHTTWFKFSVA | soluble |
| GHMIARGKFRSLTLINWNGFFARTFDFDELVTTLSGGNGAGKSTTMAGFVTALIPDLTLLNFRNTTEAGSTSSSRDKGLYGKLKAGVCYAVLETVNSRAQRIITGVRLQQIAGRDKKVDIRPFSLQNVPMTDSVISLFTEQVANKARVLSLNDLKEKFEETAVTFKPYHSITDYHSFMFDLGILPKRLRSSSDRNKFYKLIEASLYGGISSVITKSLRDYLLPENSGVRQAFQDMEAALRENSGGSGGSISAESVANILRKTIQREQNRILQLNQGLQNIAFGQVKGVRLVVNIRDTHSILLNALSDQHEQHKDLFESQKLSFSEALAMLYKRINPHIELGQRMPQTIGEELLDYRNYLDLEVETLRGAYGWMRAESSALSTGEAIGTGMSILLMVVQSWEEESRRMRAKDILPCRLLFLDQAARLDAMSINTLFELCERLDMQLLIAAPENISPERGTTYKLVRKILANQEYVHVVGLKGFG | soluble |
| GHMSESREARLIIFHAGSLSIPLSQVEEKFTKYAQEKLGVKVTFQDEASGSVKAVRKVTDLKKRADIVAVADYTLIPQLMIPNYTDFYVLFATNEIVIAFTNKSKYADEMLKNPDKWYEILSRPDVSFGFSDPNQDPCGYRSVMVMKLAELYYGRPIFKELVEKTTNIYSNGTRIYAPKEIIIKDKRVIMRPKETDLVGLVESGSLDYIFIYKSVAKQHHLSYITLPDDINLGDFNKADFYGRVSITLGSTGKTIKAKPIVYGITVLKNAPNRELAIEFLRFLLGNEGRKIFEDNYQEFLSPPVAFGNVPPEIRRLVEVK | soluble |
| GIYQHFSIEDRPFLDKGMEWIKKVEDSYAPFLTPFINPHQEKLLKILAKTYGLACSSSGEFVSSEYVRVLLYPDYFQPEFSDFEISLQEIVYSNKFEYLTHAKILGTVINQLGIERKLFGDILVDEERAQIMINQQFLLLFQDGLKKIGRIPVSLEERPFTEKID | soluble |
| GKDWNWNVGGVLGYNKNKVTYVNVKAPAIFLQFDYPAAYPRVGVPYNAIYGYLWAGLDSKGQPQVYDSEGNIHVSSSPQKVEDAVYLGTSVPVYSGAINTNLRYKNWELAAQLLFEGGHKMRNTNIAYPGLGVTSKDVSKRWRQPGDEAYTDVPRYVPSESKDYNSYSSDLYSKASIHVLDADNWRLKNLSVTYHVPASVCQKFYVKNARIMLGMENVFTLAKSRDVKWMLGGYSKPNYLCNVNLNF | not soluble |
| GKLKKKGYLRIVTTQGSLNIELHADMAPRACDSFLRLCAVKYFDDTIFHRCIRNFMIQGGRAELRQPSKKKEVQQSPRSISGFPGGAPFEDEFDNRLVHQGIGVLSMANDGKHSNLSEFFITFKSCEHLNNKHTIFGRVVGGLDVLRQWEKLETDKKDKPLKPPKVEEIIVFKNPFEDARKEMEDEKREEEEKEKKKLENA | soluble |
| GKQKQYLFEARDITSRKLMEDKLYQRESSLRNYYEQQPVMMVTLDSHNRIQEVNRFAQLLLGYEPIEMLGHRLREFYLDDKALFPRQVLLQPSHQVHDVWRREIEYRHADGHSVWVRENIRPLNDSD | not soluble |
| GKSIFDKLWDRHVITGKEGEPQLMYVDQHYIHEVTSPQAFQGLRDAGRKVRRPDLTFGTFDHNVPTVNIYDIRDVISKAQMDALARNVIEFNIPHADHGSENQGIVHMVGPETGRTQPGKFIVCGDSHTATHGAFGAIGFGIGTTEVEHVFATQTIWQVKPKK | not soluble |
| GMADKTGTPHPLTEPGVWIERIGGRVFPPHLPALFLDRDGTINVDTDYPSDPAEIVLRPQMLPAIATANRAGIPVVVVTNQSGIARGYFGWSAFAAVNGRVLELLREEGVFVDMVLACAYHEAGVGPLAIPDHPMRKPNPGMLVEAGKRLALDLQRSLIVGDKLADMQAGKRAGLAQGWLVDGEAAVQPGFAIRPLRDSSELGDLLAAIETLGRDNRS | soluble |
| GMAEDQTVLAIDIGGSHVKIGLSTDGEERKVESGKTMTGPEMVAAVTAMAKDMTYDVIAMGYPGPVVHNKPLREPVNLGEGWVGYDYEGAFGRPVRIVNDALMQAIGSYNGGRMLFLGLGTGLGAAMIVENVAQPMEIAHLPYRKGKTYEHYVSEAYREKKGNAKWQKRVQDVVERLSAALEPDEVVIGGGNVERLENLPPKCRRGDNAMAFEGGFRLWKNADLIV | soluble |
| GMALTPDQMPDRAEVVFTCNGKAVGKMRNELDVAMVKPFEERFALATDEGAFHGGDASAPPPLALFIAGLTGCVMTQIRAFAKRLKVTVTDLDVECRVVWDWAKAGPVYETGPKSFEIDIILHSPDPIEAQQALIEAAKKGCFLEQTLGQANTIRHRLKVGDTFIDA | soluble |
| GMATNSSTEQSLTKKVWNLATTLAGQGIGFTDYITQLTYLLFLKMDAENVEMFGEESAIPTGYQWADLIAFDGLDLVKQYEETLKLLSELDNLIGTIYTKAQNKIDKPVYLKKVITMIDEEQWLIMDGDVKGAIYESILEKNGQDKKSGAGQYFTPRPLIQAMVDCINPQMGETVCDPACGTGGFLLTAYDYMKGQSASKEKRDFLRDKALHGVDNTPLVVTLASMNLYLHGIGTDRSPIVCEDSLEKEPSTLVDVILANPPFGTRPAGSVDINRPDFYVETKNNQLNFLQHMMLMLKTGGRAAVVLPDNVLFEAGAGETIRKRLLQDFNLHTILRLPTGIFYAQGVKANVLFFSKGQPTKEIWFYDYRTDIKHTLATNKLERHHLDDFVSCYNNRVEIYDAENNPQGRWRKYPVDEIIARDKTSLDITWIKPGGEVDDRSLAEL | soluble |
| GMDIINNRRSIRNYKGKKVEKEKIEKLLRAAMQAPSAGNQQPWEFIVLEDRENIDKLSNFSKYANSLKTAPLAIVLLADEEKMKISEMWEQDMAAAAENILLEAAYLDLGAVWLGAQPIEERVKNLKEMFNLKSNIKPFCVISVGYPENSENKFIDRFDAKRIHIEKY | soluble |
| GMDKQAILDNIHQTWQEEANAISRLPEVTSEEALVKTVEKIAECTGKIVVAGCGTSGVAAKKLVHSFNCIERPAVFLTPSDAVHGTLGVLQKEDILILISKGGNTGELLNLIPACKTKGSTLIGVTENPDSVIAKEADIFFPVSVSKEPDPFNMLATASTMAVIASFDAVIVCLMTYMNYTKEQFSVIHPGGAVGNKLLNK | soluble |
| GMENLGDRLEVVAELSLAPGNITLTPDGRLFLSLHQFYQPEMQVAELTQDGLIPFPPQSGNAIITFDTVLGIKSDGNGIVWMLDNGNQSKSVPKLVAWDTLNNQLSRVIYLPPPITLSNSFVNDLAVDLIHNFVYISDPAPDDKAALIRVDLQTGLAARVLQGYPGIAPEDIDLVIDGVPVQIGQPDGTVIRPHLGVNGIVLDAENEWLYLSPMHSTSMYRIKSADLSNLQLTDAELGSKIERYSEKPICDGISIDKDHNIYVGDLAHSAIGVITSADRAYKLLVTDEKLSWTDSFNFGSDGYLYFDCNQLHHSAPLNAGENISAPPYYIFRLKPLAAGIVGR | soluble |
| GMEPLKVEKFATANRGNGLRAVTPLRPGELLFRSDPLAYTVCKGSRGVVCDRCLLGKEKLMRCSQCRVAKYCSAKCQKKAWPDHKRECKCLKSCKPRYPPDSVRLLGRVVFKLMDGAPSESEKLYSFYDLESNINKLTEDRKEGLRQLVMTFQHFMREEIQDASQLPPAFDLFEAFAKVICNSFTICNAEMQEVGVGLYPSISLLNHSCDPNCSIVFNGPHLLLRAVRDIEVGEELTICYLDMLMTSEERRKQLRDQYCFECDCFRCQTQDKDADMLTGDEQVWKEVQESLKKIEELKAHWKWEQVLAMCQAIISSNSERLPDINIYQLKVLDCAMDACINLGLLEEALFYGTRTMEPYRIFFPGSHPVRGVQVMKVGKLQLHQGMFPQAMKNLRLAFDIMRVTHGREHSLIEDLILLLEECDANIRAS | soluble |
| GMEWQAEQAYNHLPPLPLDSKLAELAETLPILKACIPARAALAELKQAGELLPNQGLLINLLPLLEAQGSSEIENIVTTTDKLFQYAQEDSQADPMTKEALRYRTALYQCFTQLSNRPLCVTTALEICSTIKSVQMDVRKVPGTSLTNQATGEVIYTPPAGESVIRDLLSNWEAFLHNQDDVDPLIKMAMAHYQFEAIHPFIDGNGRTGRVLNILYLIDQQLLSAPILYLSRYIVAHKQDYYRLLLNVTTQQEWQPWIIFILNAVEQTAKWTTHKIAAARELIAHTTEYVRQQLPKIYSHELVQVIFEQPYCRIQNLVESGLAKRQTASVYLKQLCDIGVLEEVQSGKEKLFVHPKFVTLMTKDSNQFSRYAL | soluble |
| GMLTENPVLQAIRQRRSIRRYTDEAVSDEAVRLILEAGIWAPSGLNNQPCRFLVIRADDPRCDILAAHTRYGHIVRGAKVIILVFLDREAMYNEVKDHQAAGAAVQNMLLAAHALQLGAVWLGEIINQAATLLPALALDPARLSFEAAIAAGHPAQNGSSSRRPLAELLLEEPFPQPE | soluble |
| GMNDRKILVAYFSCSGVTKAVAEKLAAITGADLYEIKPEVPYTEADLDWNDKKSRSSVEMRDALSRPAISGTLFHPEKYEVLFVGFPVWWYIAPTIINTFLESYDFAGKIVVPFATSGGSGIGNCEKNLHKAYPDIVWKDGKLLNGQITRDLVTEWFEKIRL | soluble |
| GMPHVHVSTDNSLLDIGLIHRTLSQDTDWAKDIPLALVQRAIDHSLCFGGFVDGRQVAFARVISDYATFAYLGDVFVLPEHRGRGYSKALMDAVMAHPDLQGLRRFSLATSDAHGLYARYGFTPPLFPQSLMERYVPGLYST | soluble |
| GMPKANLEIIRSTYEGSASSNAKHLAEALSEKVEWTEAEGFPYGGTYIGVEAIMENVFSRLGSEWNDYKASVNMYHEVSGKDVIIAEGMYSGVYKDTGKSFEAEFVHVWQLENGKIVKFKQYVDSHLVREAMKS | soluble |
| GMQLTSENYYSQEANKEYMSVSGYKDFAGTYGKMPCEFYGMEKLNGRWEDEKSTALLVGSYVDSYFEGSLDQFKKDNPEIFTQKGELKANFKQAEEIIARIERDEYFMKYMSGQKQVIMTGELFGAKWKIKMDSYIPGVAIVDLKVMASITDLKWVKDIGYLDFVRYWGYDIQGAVYQEIVRQNTGEKLPFFIAGATKQTEPDIRIIHVTDNYLQEALHMVEMNMPRILRVKNGEVEPDRCELCDCCRHNRVLKKPISIMDLTAGI | soluble |
| GMSDPRTQPLEIRPLMISRVMEVDWADGHTSRLTFEHLRVECPCAECKGHTPDQAQIVTGKEHVSVVEVVPVGHYAVQLHFSDGHNTGIFTWEYLRRLDAE | soluble |

— the DeepSol protein solubility set
